{"source": "patent US20210061914A1", "about": "(published 2021)", "binders": {"B1": {"name": "scFv G8-P2B05 (scFv, V domains shown)", "VH": "EVQLLESGGGLVQPGGSLRLSCAASGFDFSIYSMNWVRQAPGKGLEWVSAISGSGGSTYYADSVKGRFTISRDNSKNTLYLQMNSLRAEDTAVYYCASNGNYYGSGSYYNYWGQGTLVTVSS", "VL": "DIQMTQSPSSLSASVGDRVTITCRASQSISRWLAWYQQKPGKAPKLLIYAASSLQSGVPSRFSGSGSGTDFTLTISSLQPEDFATYYCQQYSTYPITIGQGTKVEIK", "notes": "scFv"}, "B2": {"name": "scFv G8-P2E06 (scFv, V domains shown)", "VH": "QVQLVQSGAEVKKPGASVKVSCKASGYTLTTYYMHWVRQAPGQGLEWMGWINPNSGGTNYAQKFQGRVTMTRDTSTSTVYMELSSLRSEDTAVYYCARAVYYDFWSGPFDYWGQGTLVTVSS", "VL": "B1 VL with S28G, R31N, W32S, Y91A, S92N, T93S, Y94F, I96W, I98F, V104L", "notes": "scFv"}, "B3": {"name": "scFv R3G8-P2C10 (scFv, V domains shown)", "VH": "QVQLVQSGAEVKKPGASVKVSCKASGYTFTSYYMHWVRQAPGQGLEWMGWINPYSGGTNYAQKFQGRVTMTRDTSTSTVYMELSSLRSEDTAVYYCAKGGIYYGSGSYPSWGQGTLVTVSS", "VL": "B1 VL with S28D, I29V, R31T, Y91S, S92H, T93S, Y94T, I96Q, I98F", "notes": "scFv"}, "B4": {"name": "scFv R3G8-P2E04 (scFv, V domains shown)", "VH": "QVQLVQSGAEVKKPGSSVKVSCKASGGTFSSYGVSWVRQAPGQGLEWMGWISPYSGNTDYAQKFQGRVTITADESTSTAYMELSSLRSEDTAVYYCARGLYYMDVWGKGTTVTVSS", "VL": "DIQMTQSPSSLSASVGDRVTITCRASQSISSWLAWYQQKPGKAPKLLIYDASNLETGVPSRFSGSGSGTDFTLTISSLQPEDFATYYCQQSYSTPLTFGGGTKLEIK", "notes": "scFv"}, "B5": {"name": "scFv R3G8-P4F05 (scFv, V domains shown)", "VH": "QVQLVQSGAEVKKPGASVKVSCKASGYTFSNMYLHWVRQAPGQGLEWMGWINPNTGDTNYAQTFQGRVTMTRDTSTSTVYMELSSLRSEDTAVYYCARGLYGDYFLYYGMDVWGQGTKVTVSS", "VL": "B4 VL with S28G, S31N, W32Y, D50A, N53T, E55Q, T56S, L104V", "notes": "scFv"}, "B6": {"name": "scFv R3G8-P5C03 (scFv, V domains shown)", "VH": "QVQLVQSGAEVKKPGASVKVSCKASGYTFTSYYMHWVRQAPGQGLEWMGWMNPNSGNTGYAQKFQGRVTMTRDTSTSTVYMELSSLRSEDTAVYYCARGLLGFGEFLTYGMDVWGQGTLVTVSS", "VL": "B4 VL with S28G, S31N, D50A, N53T, E55Q, T56S, S91T, L96W, G100Q", "notes": "scFv"}, "B7": {"name": "scFv R3G8-P5F02 (scFv, V domains shown)", "VH": "QVQLVQSGAEVKKPGASVKVSCKASGYTFTGYYIHWVRQAPGQGLEWMGVINPSGGSTTYAQKLQGRVTMTRDTSTSTVYMELSSLRSEDTAVYYCARDRDSSWTYYYYGMDVWGQGTTVTVSS", "VL": "EIVMTQSPATLSVSPGERATLSCRASQSVGNSLAWYQQKPGQAPRLLIYGASTRATGIPARFSGSGSGTEFTLTISSLQSEDFAVYYCQQYGSSPYTFGQGTKVEIK", "notes": "scFv"}, "B8": {"name": "scFv R3G8-P5G08 (scFv, V domains shown)", "VH": "B5 VH with S30T, N31S, M32N, L34M, I51M, T55S, D57N, N59G, T63K, K118T", "VL": "not shown", "notes": "scFv"}, "B9": {"name": "scFv G8-P1C01 (scFv, V domains shown)", "VH": "QVQLVQSGAEVKKPGASVKVSCKASGGTFSSHAISWVRQAPGQGLEWMGVIIPSGGTSYTQKFQGRVTMTRDTSTSTVYMELSSLRSEDTAVYYCARGDYYDSSGYYFPVYFDYWGQGTLVTVSS", "VL": "B4 VL with S28N, S30Y, S31T, W32Y, A34N, S91A, Y92N, S93G, T94F, L104V", "notes": "scFv"}, "B10": {"name": "scFv G8-P2C11 (scFv, V domains shown)", "VH": "QVQLVQSGAEVKKPGASVKVSCKASGYTFTSYAMNWVRQAPGQGLEWMGWINPNSGGTNYAQKFQGRVTMTRDTSTSTVYMELSSLRSEDTAVYYCAKDPFWSGHYYYYGMDVWGQGTTVTVSS", "VL": "not shown", "notes": "scFv"}, "B11": {"name": "scFv G5-P4E04 (scFv, V domains shown)", "VH": "QVQLVQSGAEVKKPGASVKVSCKASGGTFSSYGISWVRQAPGQGLEWMGWINPNSGVTKYAQKFQGRVTMTRDTSTSTVYMELSSLRSEDTAVYYCARGDYYFDYWGQGTLVTVSS", "VL": "B4 VL with S31R, W32F, A34N, D50G, N53R, L54P, E55Q, T56S, G100Q, L104V", "notes": "scFv"}, "B12": {"name": "scFv G5R4-P1D06 (scFv, V domains shown)", "VH": "QVQLVQSGAEVKKPGASVKVSCKASGYTFTSYDINWVRQAPGQGLEWMGWINPNSGDTKYSQKFQGRVTMTRDTSTSTVYMELSSLRSEDTAVYYCARDGTRYYGMDVWGQGTTVTVSS", "VL": "not shown", "notes": "scFv"}, "B13": {"name": "scFv G5R4-P1H11 (scFv, V domains shown)", "VH": "EVQLLESGGGLVKPGGSLRLSCAASGFTFSDYYMSWVRQAPGKGLEWVSYISSSSSYTNYADSVKGRFTISRDDSKNTLYLQMNSLKTEDTAVYYCARDVVANFDYWGQGTLVTVSS", "VL": "B7 VL with G30S, N31S, S32N, G50A, T53A, T56S, S94W, Y96R", "notes": "scFv"}, "B14": {"name": "scFv G5R4-P2B10 (scFv, V domains shown)", "VH": "QVQLVQSGAEVKKPGASVKVSCKASGGTFSSYAISWVRQAPGQGLEWMGWMNPDSGSTGYAQRFQGRVTMTRDTSTSTVYMELSSLRSEDTAVYYCARGHSSGWYYYYGMDVWGQGTTVTVSS", "VL": "not shown", "notes": "scFv"}, "B15": {"name": "scFv G5R4-P2H8 (scFv, V domains shown)", "VH": "EVQLLESGGGLVQPGGSLRLSCAASGFTFTSYSMHWVRQAPGKGLEWVSSITSFTNTMYYADSVKGRFTISRDNSKNTLYLQMNSLRAEDTAVYYCAKDLGSYGGYYWGQGTLVTVSS", "VL": "not shown", "notes": "scFv"}, "B16": {"name": "scFv G5R4-P3G05 (scFv, V domains shown)", "VH": "QVQLVQSGAEVKKPGASVKVSCKASGYTFTNYYMHWVRQAPGQGLEWMGIINPSGGSTSYAQKFQGRVTMTRDTSTSTVYMELSSLRSEDTAVYYCARSWFGGFNYHYYGMDVWGQGTTVTVSS", "VL": "DIQMTQSPSSLSASVGDRVTITCQASEDISNHLNWYQQKPGKAPKLLIYDALSLQSGVPSRFSGSGSGTDFTLTISSLQPEDFATYYCQQANSFPFTFGPGTKVDIK", "notes": "scFv"}, "B17": {"name": "scFv G5R4-P4A07 (scFv, V domains shown)", "VH": "QVQLVQSGAEVKKPGASVKVSCKASGYTFTSYYMHWVRQAPGQGLEWMGWMNPNSGNTGYAQKFQGRVTMTRDTSTSTVYMELSSLRSEDTAVYYCARELPIGYGMDVWGQGTTVTVSS", "VL": "not shown", "notes": "scFv"}, "B18": {"name": "scFv G5R4-P4B01 (scFv, V domains shown)", "VH": "QVQLVQSGAEVKKPGSSVKVSCKASGGTFSSYAISWVRQAPGQGLEWMGGIIPIVGTANYAQKFQGRVTITADESTSTAYMELSSLRSEDTAVYYCARGGSYYYYGMDVWGQGTTVTVSS", "VL": "not shown", "notes": "scFv"}, "B19": {"name": "scFv G5-P1B12 (scFv, V domains shown)", "VH": "EVQLLESGGGLVQPGGSLRLSCAASGFTFSNSDMNWVRQAPGKGLEWVASISSSGGYINYADSVKGRFTISRDNSKNTLYLQMNSLRAEDTAVYYCAKVNWNDGPYFDYWGQGTLVTVSS", "VL": "B1 VL with R31S, Y91A, S92N, T93S, Y94F, I96L, I98F, Q100G", "notes": "scFv"}, "B20": {"name": "scFv G5-P1C12 (scFv, V domains shown)", "VH": "QVQLVQSGAEVKKPGSSVKVSCKASGGTFSNFGVSWLRQAPGQGLEWMGGIIPILGTANYAQKFQGRVTITADESTSTAYMELSSLRSEDTAVYYCATPTNSGYYGPYYYYGMDVWGQGTTVTVSS", "VL": "B4 VL with D50A, N53T, E55Q, T56S, T94I, L104V", "notes": "scFv"}, "B21": {"name": "scFv G5-P1-E05 (scFv, V domains shown)", "VH": "QVQLVQSGAEVKKPGASVKVSCKASGYTFTSYNMHWVRQAPGQGLEWMGWINPNSGGTNYAQKFQGRVTMTRDTSTSTVYMELSSLRSEDTAVYYCARDVMDVWGQGTTVTVSS", "VL": "DIQMTQSPSSLSASVGDRVTITCRASQGISNYLNWYQQKPGKAPKLLIYYASSLQSGVPSRFSGSGSGTDFTLTISSLQPEDFATYYCQQTYMMPYTFGQGTKVEIK", "notes": "scFv"}, "B22": {"name": "scFv G5-P3G01 (scFv, V domains shown)", "VH": "QVQLVQSGAEVKKPGASVKVSCKASGGTFSGYLVSWVRQAPGQGLEWMGWINPNSGGTNTAQKFQGRVTMTRDTSTSTVYMELSSLRSEDTAVYYCAREGYGMDVWGQGTTVTVSS", "VL": "not shown"}, "B23": {"name": "scFv G5-P3G08 (scFv, V domains shown)", "VH": "QVQLVQSGAEVKKPGASVKVSCKASGYIFRNYPMHWVRQAPGQGLEWMGWINPDSGGTKYAQKFQGRVTMTRDTSTSTVYMELSSLRSEDTAVYYCARDNGVGVDYWGQGTLVTVSS", "VL": "B21 VL with N34A, Y50A, T91S, M93I, M94T, V104L", "notes": "scFv"}, "B24": {"name": "scFv G5-P4B02 (scFv, V domains shown)", "VH": "QVQLVQSGAEVKKPGASVKVSCKASGYTFTGYYMHWVRQAPGQGLEWMGWMNPNIGNTGYAQKFQGRVTMTRDTSTSTVYMELSSLRSEDTAVYYCARGIADSGSYYGNGRDYYYGMDVWGQGTTVTVSS", "VL": "DIVMTQSPDSLAVSLGERATINCKTSQSVLYRPNNENYLAWYQQKPGQPPKLLIYQASIREPGVPDRFSGSGSGTDFTLTISSLQAEDVAVYYCQQYYTTPYTFGQGTKLEIK", "notes": "scFv"}}, "note": "Changes are numbered by the printed parent chain."}
{"molecular_target": "HLA-A*02:01_… (HLA-PEPTIDE target G8), soluble (human, enzymatically biotinylated (BirA) for screening and BLI)", "assay": "scFv PPE ELISA", "units": {"fold selective binding, target pHLA vs minipool of negative control pHLAs": "fold"}}
{"binder": "B1", "fold selective binding, target pHLA vs minipool of negative control pHLAs": "≥ 3"}
{"binder": "B2", "fold selective binding, target pHLA vs minipool of negative control pHLAs": "≥ 3"}
{"binder": "B3", "fold selective binding, target pHLA vs minipool of negative control pHLAs": "≥ 3"}
{"binder": "B4", "fold selective binding, target pHLA vs minipool of negative control pHLAs": "≥ 3"}
{"binder": "B5", "fold selective binding, target pHLA vs minipool of negative control pHLAs": "≥ 3"}
{"binder": "B6", "fold selective binding, target pHLA vs minipool of negative control pHLAs": "≥ 3"}
{"binder": "B7", "fold selective binding, target pHLA vs minipool of negative control pHLAs": "≥ 3"}
{"binder": "B8", "fold selective binding, target pHLA vs minipool of negative control pHLAs": "≥ 3"}
{"binder": "B9", "fold selective binding, target pHLA vs minipool of negative control pHLAs": "≥ 3"}
{"binder": "B10", "fold selective binding, target pHLA vs minipool of negative control pHLAs": "≥ 3"}
{"molecular_target": "HLA-B*35:01_… (HLA-PEPTIDE target G5), soluble (human, enzymatically biotinylated (BirA))", "assay": "scFv PPE ELISA", "units": {"fold selective binding, target pHLA vs minipool of negative control pHLAs": "fold"}}
{"binder": "B11", "fold selective binding, target pHLA vs minipool of negative control pHLAs": "≥ 3"}
{"binder": "B12", "fold selective binding, target pHLA vs minipool of negative control pHLAs": "≥ 3"}
{"binder": "B13", "fold selective binding, target pHLA vs minipool of negative control pHLAs": "≥ 3"}
{"binder": "B14", "fold selective binding, target pHLA vs minipool of negative control pHLAs": "≥ 3"}
{"binder": "B15", "fold selective binding, target pHLA vs minipool of negative control pHLAs": "≥ 3"}
{"binder": "B16", "fold selective binding, target pHLA vs minipool of negative control pHLAs": "≥ 3"}
{"binder": "B17", "fold selective binding, target pHLA vs minipool of negative control pHLAs": "≥ 3"}
{"binder": "B18", "fold selective binding, target pHLA vs minipool of negative control pHLAs": "≥ 3"}
{"binder": "B19", "fold selective binding, target pHLA vs minipool of negative control pHLAs": "≥ 3"}
{"binder": "B20", "fold selective binding, target pHLA vs minipool of negative control pHLAs": "≥ 3"}
{"binder": "B21", "fold selective binding, target pHLA vs minipool of negative control pHLAs": "≥ 3"}
{"binder": "B22", "fold selective binding, target pHLA vs minipool of negative control pHLAs": "≥ 3"}
{"binder": "B23", "fold selective binding, target pHLA vs minipool of negative control pHLAs": "≥ 3"}
{"binder": "B24", "fold selective binding, target pHLA vs minipool of negative control pHLAs": "≥ 3"}
